What all share (assay): purified protein
Holding throughout (conditions): apparent, sulfate donor, acceptor phenol 100 mM, Tris/HCl 50 mM pH 8.0, 30 °C

Substrate in data set [1]: O=[N+]([O-])c1ccc(OS(=O)(=O)O)cc1
The class given is biochemical, Hungatella effluvii.

Substrate in data set [2]: O=[N+]([O-])c1ccc(OS(=O)(=O)O)cc1
The class given is biochemical, Dehalobacterium formicoaceticum.

Substrate in data set [3]: O=[N+]([O-])c1ccc(OS(=O)(=O)O)cc1
Type of data set: biochemical, Desulfitobacterium dehalogenans.

Substrate in data set [4]: O=[N+]([O-])c1ccc(OS(=O)(=O)O)cc1
Type of data set: biochemical, Desulfosporosinus orientis.

Substrate in data set [5]: O=[N+]([O-])c1ccc(OS(=O)(=O)O)cc1
Type of data set: biochemical, Desulfitobacterium hafniense.

B1: ASSTHeff (Hungatella effluvii) (protein)
chain: MIRYEKKNSLITQQAEAEQKFLETFEAGAYTASSPLVVRNPYLISPLSAMILFKTAVKQEVTLTVKGKEPEGDISHTFPADTIHILPVYGLYADCENTVELILSGGERETVMIKTEPLPPEVPVPTFCKGSGAHMGDNVIFLTQTSKADALACDYRGDVRWYLTVNVCFDMKRLANGHLLVGTDRLIKLPYYVSGVYEMGVHGKIYREYRLPGGYHHDTFEMEDGNILMLSQIPDRDTVEDVLVLVNRQTGAIVRTWDYREILPYDCQTTWSGSASAHDWFHNNAVWYDKKTDSITLSGRHQDAVINIDFKTGALNWILGDPEGWPEEYVEKYFFRPISEPFEWSYEQHGVVVCPDGDIMMFDNGHYRSKLKAHYSKAKDSYSRGVRYHIDREARTIEQVWQYGKERGADFFSPYICNVEYYDEGRYMVHSGGIAYKDGEPLEGLGSMDGTGEGCTLNAITCELVNDEVVYELHVPSNVFRAEKLPMYYAGETAELGAGKTLGSMSRTGEFETEIPAVCTGDLIPEHYEASVTEEEDRILFNATFEKGELAMLLLEEEDGKAHRYYINTSAAKNFEAMCVGTFLKNDPRNVDVYVNKCGMSKNVKVRVLLEDKIYETGVEIRME
notes: recombinant from E. coli BL21(DE3), C-terminal His-tag, IMAC purified, about 70-76 kDa
For B1, in data set [1], the Km is 2.1 mM, the Vmax was 39.8 µmol/min/mg, the turnover number (kcat) came to 46.9 s⁻¹ and the kcat/Km stood at 22300 M⁻¹ s⁻¹.

B2: ASSTDfor (Dehalobacterium formicoaceticum) (protein)
chain: MNAIKSEQVPHIIHQQEKLEKAFLAEFAAGGYTLYNPLVKINPYGICPLTAMVLFETPVATEATVVVRGKEHLGDIRHTFPAGKKHILPIYGLYADYENKIELIMANGQKNTIKIQTEPLHTDVPVATSIKTTPEYMGNNLMFLTAAMRSMPVGYDYAGDIRWYATKNFAFDLKRLPNGHILVGTERLVKMPYFTTGLYEMAFSGKIFKEYVLPSGYHHDQFPMEDGNILVLTFDFYSGTVEDMCVLLDAKTGEVLKSWDYKKVLPQDVAGSGSQDEHDWFHNNAVWYDKKTNSLSLSGRHQDAVINIDYETGELNWIIGDPEGWPKEMVDKYFFTPVGDGDFDWQYEQHACVVLPDGDIMLFDNGHFRAKNKENYWPNSKNFSRGVRYRIDTEKMTIKQVWQYGKERGAEFFSPYICNVEYYNEGHYLVHSGGIGYENGKPCEGMAVMKTMQPEFKDNVYTFNSITCELKDDVLMYELQVPANCYRAEKLPLYYANETAELGAGEILGNLIKTEETKMKIKAEETGALVPDHFQASITEEEDRFLFNAIFDAGEMAQLLLVNEAGEIKRYPINTVPQAFQAMCVGTFQKADPRNIDTFINKIGLSGNYQVKLVAEEKVYETGVTIKA
notes: as for B1
For the protein B2, in data set [2], the Michaelis-Menten constant (Km) is recorded as 0.5 mM, the Vmax is 5.3 µmol/min/mg, the kcat amounted to 6.3 s⁻¹ and the specificity constant (kcat/Km) was determined as 12600 M⁻¹ s⁻¹.

B3: ASSTDdeh (Desulfitobacterium dehalogenans ATCC 51507) (protein)
chain: MMNPIKSEQIPHIIHRQKDFEEAFLAEFSAGHYTLANPLVELNPYEICPLTAMILFETPVSTEATIIVRGKEHPGDIRHTFPANKKHILPIYGLYADYENKVEIVLANGQRNTVTIKTGPLHPDVPVATSIKTTSEYMGNNLMFLTAAMKAMPVGYDYAGEVRWYATRNFAFDLKRIPNGHILIGTERLVKMPYFTTGLYEMAFSGKIFKEYRLPSGYHHDQFVMEDGNILVLTFDFYSGTVEDMCVLLDAETGEILKSWDYKKVLPQDVAGSGSQDAHDWFHNNAVWYDRKTNSLSLSGRHQDAVINIDYETGELNWIIGDPEGWPQDMVDQYFFTPVGEGEFDWQYEQHACVVLPDGDIMLFDNGHFRAKNKENYLPNSQNFSRGVRYRIDTEKMTIEQVWQYGKERGAEFFSPYICNVEYYDEGHYLVHSGGIGYENGETCEGMAVMKVLQPEFKDNVYTFNSITCELKDDVLMYELQVPANCYRAEKLPLYYAYETAELGEGKILGNLVETQETKMKIKAVETGERVPDHYEASITEEEDRILLNAIFDAGELAQLLLVDGDGGVKRYPISTVPQAFQAMCVGTFQKADPRNIDVYINKTGLSGKYQVKLIAEEKLYETGVSITA
notes: as for B1
Take B3: in data set [3], the Michaelis constant (Km) is on record as 0.4 mM, the Vmax is 21.2 µmol/min/mg, the kcat was found to be 25.3 s⁻¹ and the kcat/Km was found to be 63200 M⁻¹ s⁻¹.

B4: ASSTDor (Desulfosporosinus orientis DSM 765) (protein)
chain: MSVKFKSFDHIITEQYQAEQAFLTEYQKGEYSFNNPYVKLNPYIIAPLTALVMFKTAQPTTVTITVKGKDKNGDICFNFPTAIEHLIPVYGLYANYANKVELALGDGKTNVITIQTEAAPEIVKLPTQINTTADYFEDNIMFVSPTSTAATAGYDYNGDVRWYGSLNFAFDIKRAKNGRLLLGTHRLVTPPYHTTGLYEMGMIGKIYKEYRLPSGYHHDQFEMEDGNLLILSQDLPRGTVEDMCVLVDRKTGQIIKSWDYQKVLPTNAGGSGSQDSHDWFHNNAVWYDKKTNSLTLSGRHQDIIINLDFETGALNWIIGDPEGWPKELVDNYFFKPVGKGEFDWQYEQHACVVCPNGDIMAFDNGHWRSKIKENYVTANDNFSRGVRYRIDTKKMEIEQVWQYGKERGAEFFSTYICNVEYYDEGHYLIHSGGIGSIDGEALNKPPVQFRGEDEKKVVFNSITVELKDDVMMYEMQLPANYYRAEKLKLYAAEDVLTLGKGELLGTLGVTEEFTTIPPAEEGGMVPEKYNVKLGLEEDRLIFKATFEKGQMVLLQLEGETTHSYFVPTTKRPFLAMCVGTFQESDDRAVEFPVSREGLAGGFRVSLIVDAYKYETGVTIKL
notes: as for B1
In the case of B4, in data set [4], the Michaelis constant (Km) is given as 1.0 mM, the Vmax was 0.5 µmol/min/mg, the kcat worked out at 0.6 s⁻¹ and the kcat/Km amounted to 600 M⁻¹ s⁻¹.

B5: ASSTC (Desulfitobacterium hafniense) (protein)
chain: MVDYEYCPHIITKQNELEKAFMEKFEAGNYSLENPLVILNPYGVAPLTAMILFNTPIACEAKIIVKGKEHPGDIQHTFPAATRHILPVYGLYGGYKNTIKIILSTSSSNTITIQTEPLPKSVAIPSSIKTTSEYMGNNLMFLSPSMASLTVGYDYAGDVRWYCSLNVCFDLKRMPNGHLLIGTGRLVKVPYYTSGLYEMAFSGKIFKEFILPGGYHHDQFVMEDGNLLVLTQDFYADTVEDVCVLIDPHSGDILKKWDFKNILPQDVAGSGTQTAHDWFHNNAVWYDNRTNSLTLSGRHQDVIINIDYETGGLNWMIGDPEGWPQELVDKYFFTPAGDGEFDWQYEQHGCVVLPDGDIMVFDNGHYRSKNKENYRLNKDNFSRGVRYRIDTERMTIQQIWQYGKERGADFFSPFICNVEYYDEGHYMVHSGGIGYENGKPCEGLAVGKSKNPKFKDNVYTLNSITCELVNDELVYELQVPANFYRAEKLPIYYANEVAELCEGQRLGQFVETQTTRMKIKALETKEPIPEHYQAKIVEEEDRFCLNAIYESGETAQLLLVSESDEILRYPINTVAQAYGAMCVGTFQKSDPRNVDTFVTKTGLSGKYQVKLVAEDKIYETGVTISA
notes: as for B1
On to B5, for which, in data set [5], the Km came out at 0.2 mM, the Vmax worked out at 0.6 µmol/min/mg, the catalytic constant (kcat) was 0.7 s⁻¹ and the kcat/Km was found to be 3600 M⁻¹ s⁻¹.

One may read the Km as the substrate concentration at which the rate is half of its maximum. Usually Vmax stands for the rate approached at saturating substrate. As usually defined, the kcat is the number of substrate molecules converted per active site and unit of time at saturation. The term kcat/Km denotes the second-order rate constant that governs catalysis at low substrate concentration.

The record behind these values is article PMC11576661, “Biocatalytic sulfation of aromatic and aliphatic alcohols catalyzed by arylsulfate sulfotransferases” (Applied Microbiology and Biotechnology, 2024).
